± gives the uncertainty stated by the source.
Experiment: amyloid nucleation score (Sup35N fusion, yeast selection) (log enrichment); library NNK2; higher = more nucleation; inactive = no reads after selection
In short: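 Psi-negative yeast expressed Sup35N fused to peptides of 20 random codons. They were induced 24 hours with 100 μM copper sulfate, grown 7 days at 30°C without adenine and uracil, and their plasmid inserts from input and output were Illumina-sequenced. The nucleation score is the DiMSum log enrichment of output over input reads, centred on the mode score of non-aggregating sequences. Sequences with under 100 input reads were excluded.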

| Substance | amyloid nucleation score |
| --- | --- |
| RIEDFF | 1.19 ± 0.68 |
| EIYCCAYPLFCVWVVTGIRL | 1.62 ± 0.13 |
| LFERFWFIL | 0.187 ± 0.23 |
| SRAIECVRIYTFNSHSWFIA | -1.38 ± 1.1 |
| CLGRLMVYSAYYVHLYGVTI | -1.29 ± 0.62 |
| YLVYKMNNGCLCNIFAPVTE | 8.303 ± 0.064 |
| YSYSIRLRCFASRYIFVRVR | 0.436 ± 0.66 |
| GLNVHVVRLGIQLFFKWNDI | 1.74 ± 0.18 |
| LVHYFICHVPFLIFRYDKVT | inactive |
| ERKHTFHAVGHGLQESLVRF | -0.212 ± 0.45 |
| NSGSGAAFGVSLHVVNCARS | 0.045 ± 0.79 |
| FANRILCVVSGINRVTGL | 0.192 ± 0.34 |
| FVRGDSGFTLNAAR | -0.288 ± 0.3 |
| CRIVKRVRAADRRMWIMCLG | -0.256 ± 0.37 |
| RKIYV | -0.139 ± 0.55 |
| IQKVVIVYSHDVYSDQ | 6.737 ± 0.048 |
| LTFGCG | -0.903 ± 0.36 |
| IIALLYIKMTSTLVTVRKSL | 0.297 ± 0.5 |
| QSFFLN | inactive |
| RDIFILYD | inactive |
| DTSAIFSYALLL | 4.56 ± 0.058 |
| NGTKTP | 0.568 ± 0.47 |
| STCGEAVKTFLVGLFELFMV | 0.452 ± 0.66 |
| VAPTLYLVCRIIRPNPNSYY | -0.228 ± 0.53 |
| SLTSSSICHRPHTCTVCV | -0.364 ± 0.33 |

| Substance | amyloid nucleation score |
| --- | --- |
| AKLLSAVVWDCHWV | 5.17 ± 0.055 |
| LPNRVNDRDAEYHVMLLCK | 0.095 ± 0.27 |
| FGYFNVHSKSSGIMKWCGQC | -0.612 ± 0.54 |
| FIDIKSICCRHMNDWHCLSE | -0.603 ± 0.32 |
| LYDIDWRFRHKDAHQCKVDR | -0.184 ± 1.1 |
| SKGYCWNVICSRVSFTTYAL | 6.77 ± 0.061 |
| NRKTSGLYVFRWRKRPR | 0.264 ± 0.4 |
| CFEVFRFRRNRSLISPYQRM | 0.612 ± 0.62 |
| SSMILLVYCPYVPWNRSRR | 4.8 ± 0.041 |
| DLARPDFKLIYSYGSNSPGS | -1.38 ± 0.64 |
| PYQLRVSLTLMLISGSLDIY | 0.47 ± 0.5 |
| AAVTFSISYFIKTLHLENSS | 0.169 ± 0.28 |
| THLLVVWFDNRYF | 0.978 ± 0.74 |
| MNDLMYVVLSRCSMIGNCGS | 1.29 ± 0.17 |
| HKWCKYNDLFVIHMSGFGRG | 5.44 ± 0.087 |
| QFSCRCN | 0.011 ± 0.79 |
| VERLYDAYQIF | 0.316 ± 0.4 |
| FYSSPILM | -0.927 ± 0.41 |
| SGRLL | 1 ± 0.13 |
| STLVDGGTGYMCYFFAWHQS | inactive |
| LCNGLFTFMEASSGRHAPQF | 0.138 ± 0.76 |
| QTDMII | inactive |
| PTRIFSCSRSGGWYYL | -0.831 ± 0.32 |
| YRVDSHWANLVLKTSMIWTT | -0.829 ± 0.28 |
| YASYICIQHYCFFLAYYNML | inactive |

| Substance | amyloid nucleation score |
| --- | --- |
| DSVCYNFNFNTF | 5.711 ± 0.027 |
| DFNIIECSPGRGVHHDDWEP | inactive |
| MFVRRKSVSMVEYWE | 0.054 ± 0.32 |
| LYHETAENSSRTQTTRRWSF | -0.321 ± 1 |
| NEFRDIYGFSVSKLPTGGIC | -1.17 ± 0.41 |
| IFNRSASYLAFFHKG | 4.3 ± 0.079 |
| FNGLSSFSFMLIGTGFDISC | -0.934 ± 0.64 |
| QENFCEYFFDRSITSWWR | inactive |
| RFGIGSLRSTSHVAGLMVMS | 0.733 ± 0.44 |
| LRSGGLFRDIMCRRDYVRCF | 1.23 ± 0.32 |
| LGFAGSVGICDRKTLDRREC | 4.91 ± 0.064 |
| ATVFF | 0.768 ± 0.28 |
| SNGFREYCATICNGTGDRRG | 0.651 ± 0.62 |
| YGAYVYINSFCKYNIIRSRS | 6.034 ± 0.043 |
| VWYITIYIWGMRRLIAWRMS | 0.31 ± 0.74 |
| VPVFFGPFQYT | -0.419 ± 0.63 |
| ALLVRVIRYRGSRNESRCPA | 1.42 ± 0.34 |
| NWLKYFYVSDFQWWKGYPHV | -0.067 ± 0.36 |
| MMFTSQTGDLLFF | 4.89 ± 0.051 |
| EIQHRNTAYYRSVSVGPTAV | 0.987 ± 0.67 |
| LRVGSCNVTSLMGNLVGLDS | 1.37 ± 0.42 |
| RSAILEEDFDCHMYWGL | 0.916 ± 0.31 |
| AGDAAN | inactive |
| NKLTVPYTVDVNDTILDRGK | -0.015 ± 0.46 |
| SEGLG | 3.53 ± 0.063 |

| Substance | amyloid nucleation score |
| --- | --- |
| ISSDLWVHSFNTILSENGVC | -0.674 ± 0.63 |
| CIYMSRSRRKCGCSLGTRYV | -0.393 ± 1 |
| GTLFIRSPYFCL | -0.478 ± 0.61 |
| KSDTMLRDYKKWVGHELYTR | 0.066 ± 0.54 |
| SVVGQKVGGR | 0.487 ± 0.33 |
| SRDAKRALFDLDHRTRWDHK | 4.62 ± 0.079 |
| LALCREWVTAGSGSFYLDGP | -0.06 ± 1.1 |
| ADKCYGYASACVFSGSLVC | 0.028 ± 0.56 |
| CRISVIFLYFSFFY | inactive |
| GCSLVKAYCSVL | 0.325 ± 0.6 |
| HMSVGNFLIPLCITMLRGIG | -0.347 ± 1.1 |
| GWLYVYDSGMFGGWNIGVDG | -0.131 ± 0.36 |
| FACFI | 0.271 ± 0.25 |
| GAWTAMSGVLMVMLWLWSVC | 1.83 ± 0.23 |
| AHYRR | -0.226 ± 0.45 |
| VKPVFWKLGWRDYLYSMRQF | -1.11 ± 0.3 |
| RDGYRSGYAESMVGVWFRLK | 0.662 ± 0.81 |
| NRDVFWRFLVTTVVYELSSK | inactive |
| TDYGLVALSQWKRVCLIQSG | 0.176 ± 0.22 |
| MFTKDISGFLGVLGHVVVLG | -0.237 ± 0.63 |
| SFHFCWFRYNWCYFGLS | 0.058 ± 1 |
| DQALGGEMWWL | -0.14 ± 0.45 |
| RVGDEFVGCRWVSRIANSHS | 2.23 ± 0.14 |
| LRNFSYIRQGGSRVSSASGY | -1.18 ± 1.1 |
| NDDTDQLSTSSIGRRMRMR | 0.662 ± 0.81 |

| Substance | amyloid nucleation score |
| --- | --- |
| SVSETLWYDYIFKFVISVAN | -1.03 ± 0.63 |
| DMWMRVILSDNGNQEVPK | -0.293 ± 0.27 |
| SLLRIRQYVVWRLG | 0.079 ± 0.6 |
| KSTVIMSDTFLR | -0.271 ± 1 |
| GSASLCNSAERVYV | 0.681 ± 0.55 |
| YKNVAFCFVRMFFEGHSINC | -1.45 ± 0.76 |
| FNVDKRPRSDVCLAGCISD | -0.825 ± 0.56 |
| FFNLNYMGFHSDIGSLIYPC | inactive |
| FYYLWWDSFRIVISMR | -1.86 ± 0.62 |
| CVLYCVGFN | 6.483 ± 0.042 |
| VFGACGTM | 0.606 ± 0.32 |
| ASVIQGVRLLFFRNLARSTS | 0.011 ± 0.79 |
| WVACWTSLLYQVIVIIRGLN | 0.975 ± 0.38 |
| RHNKNRSVCSYRSKYAKKYV | -0.208 ± 0.74 |
| IAVERS | -0.464 ± 1.1 |
| NSDISARCGSCVYLWYVSDD | 8.712 ± 0.048 |
| NFLGGLNRFLNCSSM | -0.683 ± 1.1 |
| WQSSSILIASSCVRSPGLPV | 0.27 ± 0.46 |
| YMSPAH | 0.606 ± 0.6 |
| HIDNVGVLR | 1.18 ± 0.28 |
| IFLQNTSSEWLLSARDRLRY | 0.157 ± 1 |
| FVNQPKVRYLVSCYFMANLP | 0.016 ± 0.54 |
| CRVRVTFG | -0.481 ± 1.1 |
| TDYLGLWPWVSSSLGRVVTW | 1.22 ± 0.45 |
| KYNSCSYEGSRRILFSGACR | -0.699 ± 0.45 |

| Substance | amyloid nucleation score |
| --- | --- |
| TLVSWYSTTEPAC | -1.13 ± 0.78 |
| GCGSPQSTFPRERCQVLVTA | 0.829 ± 0.49 |
| TMYFILLCMLLRGFSSGPPP | -1.04 ± 0.78 |
| LFCSRQSTWPRDKGVFPWTI | -0.916 ± 1.1 |
| CRNRVDECSIWRD | -0.046 ± 1 |
| FVRASGHTTCYSCQLSTPGP | 1.34 ± 0.15 |
| TGDSYLYRWVSARFGHRLRS | -0.314 ± 0.27 |
| PCACCYGSLAYAAVHSNWLG | 8.495 ± 0.07 |
| FEMGFHVWDM | inactive |
| FVRVCLSVIRYFTVTPGFKD | inactive |
| EGMSI | inactive |
| IHPRSFRNVCLSSHSEMGG | -0.813 ± 0.76 |
| VIEYRVFRKYPCNCFLRGLS | -0.865 ± 0.39 |
| YNSPSDWDTIISSIILF | -1.21 ± 1.1 |
| RVQVQLLISVYFFLYLPHSI | -1.58 ± 0.41 |
| DYTSVSMVIHVCKRL | 5.59 ± 0.097 |
| VSTILYLDY | 0.218 ± 1.1 |
| CQRQRLNFY | -0.626 ± 1.1 |
| EESSTKGMTG | -0.014 ± 0.26 |
| LPFMECC | -0.696 ± 1 |
| HSMAWNVG | inactive |
| AYSDNTFRQCSISVL | 0.218 ± 0.8 |
| GYVWDVIGKWGTLRILRVSK | -0.498 ± 1.1 |
| SIWYLGGC | -0.02 ± 0.42 |
| MVFRNNYSEVTTRLAGNGRR | -0.074 ± 1.1 |

| Substance | amyloid nucleation score |
| --- | --- |
| LMLLYIRSKYGEFVWIPKVH | -0.021 ± 0.54 |
| EMVQVVSAQGKTKL | 8.461 ± 0.061 |
| WGTCMCRKWASHFDREC | 2.55 ± 0.17 |
| VMCFNTMKC | 7.386 ± 0.044 |
| YNQRTFVSVSYEWTSGPWVC | 0.334 ± 0.33 |
| DGRIVYEPSKSARFWKVKCL | -0.335 ± 0.79 |
| DGNWL | -0.385 ± 0.76 |
| VRFVMNRSHHRSRWEAVAFN | 0.255 ± 0.48 |
| LRMHFMMWTRRVNLVRHGNN | inactive |
| NISCNSGSPGSNMTGCQESS | 0.767 ± 0.8 |
| CILLTGPSYSLKLAYSDCLS | -1.15 ± 0.43 |
| VHQFADFNKIMNGLDDLLLK | 2.65 ± 0.081 |
| GSDQNSCELSRRDIKKCMAL | 0.504 ± 0.33 |
| WSMKGFYL | inactive |
| GWMQIGSVYLFSE | 7.741 ± 0.048 |
| ETLAVLRIPCSRLYDHIYNF | -0.791 ± 0.78 |
| FCMAISFQCVNTRGFMPTAG | 7.394 ± 0.071 |
| IYNMRHSMTMFHCYGFLRRV | -0.976 ± 0.63 |
| SFLRARLCCHMMGHSTLKYH | -0.72 ± 1.1 |
| ISYIIKILRKVVSWDNDMEV | -1.25 ± 0.45 |
| FHRNMMVLQCIRRVL | 0.016 ± 1.1 |
| VTIIVLPANVMLMWVFCYMY | -0.93 ± 0.78 |
